Test results published in PMC3169405.

Target: Bartonella henselae Nudix hydrolase BH02020 (Bh-MutT) (Bartonella henselae strain Houston-1)
Assay: SEC; Superdex75 size-exclusion column, retention time 68 min; 21-residue N-terminal tag present

- stoichiometry N: 2
Substance: Bartonella henselae Nudix hydrolase BH02020 (Bh-MutT) (enzyme)
